Experiment: soluble on expression in E. coli; label from the status in PepcDB or PDB records

Sequence | soluble on expression in E. coli
MSLSKKFYPNSQAFLLEKKDLKTIDRKINANKGNFGHIYIVANASAGTLAGLGALNFGAGLVSLVAQKSFSPLLMLKEKIENNASAIALGMGLENLDFLKDEILQNTPLILDANCFLSEALLWYLNRKDVVITPHPKEFIKLYKMCFDENLDIETLQKNRFFYARKFSQNYDCVLVLKGANPIIVQKEKLFVVNLGNQALAKGGSGDVLSGMIAAHLGFGFSALEAAKNATLAHGLVAKKYKFNKNSFDALKLIKGLKCLEGHHHHHH | not soluble
MSLSKREEWAQGFILNLQSGYTQGTVGFGLDAMGMLGVKLDSGRGRSGTGLLPKDSDGRAPDTYSKLGLTAKVKVSQSELKVGTLIPKLPSVQPNNGRIFPQIFEGALLTSKEIKDLGFTAGRLEKTKIRDSSDSEDLALNDKNGRFAGVSADHFDLGGLDYKLTDQLTASYHYSNLQDVYRQHFVGLLHSWPIGPGELTSDLRFARSTDSGSAKAGGIDNKSLNGMFTYSLGNHAFGAAWQRMNGDDAFPYLEGSNPYLVNFVQVNDFAGPKERSWQLRYDYDFVGLGIPGLTFMTRYVKGDNVELAGQSGEGREWERNTELQYVFQSGALKNLGIRWRNATFRSNFTRDIDENRLIVSYTLPIWEGHHHHHH | not soluble
MSLSKTRTFLFDLYGVLIKEHGAAQFERVARAVGEPSKNDKLHEVYESLRLDLDAGRVSEVNYWNQIKLLVGLEFLDIQEVIAADYRGLYERDQDMVDYVLSLKAKGHRIGILSNIPEGLAKLLKEHNSEWLDQLDAVTLSCDIGAAKPEPKSFHVALEALGEKAEDVTFIDDRVRNIEAAREEGLSTIHFTGLDSLKESIQEGHHHHHH | soluble
MSLSLVSQYIDLTEHFQNLIAVILKNPEKVWQMQLNYLEDALSLAQAQFNYWLEGKPLPINDQRFNGEDWINNPFFNLLSQHYLLANEHMNSLLENMEYGDENLAKRVRFFTRQYLDALSPANFIHTNPQLMAETLQSHGKNLLRGLHNLLSDVEAGSSRLIIKMTDTEAFKIGENLATTPGKVIFRNSMMELIQYCPRTTKAKSIPLLIVPPWINKYYILDLSPHNSLIRWLVEQGITVFIISWVNPDETYANKSFYDYLNEGPREAISVIQKQLRVKQVNTLGFCIGGTLLASLLAYNKATKDLSIRSATFLAAMIDFSDPGDIAVFIDEQQINKLEEEMKSKGYLAGKFMASSFNSLRANDLIWSFFIKNYLRGKSPVPFDILYWNADSTNMPATMHSQYLRWMYLHNNLIKPGKIRLNHIPVDVTNIDIPTFFLSTQKDHIAPWKTTYKGFELMKGPKRFVLGGSGHIAGIINPPTQQKYGYRTNNSMDLSAEQWFEKSKEHSGSWWPEWLNWLKLHSGRLINAPDINHLPFAPIMDAPGSYVLKKEGHHHHHH | soluble
MSLSNAEITHREGVKMLVVRPISMADYEALHTCAVESGHGFTSLPVDQELLTNRITHSEYSFSKPNVTMPGDEGYLMVGVDTETGQVAGTTGIEASIGWDVPFYSYHISTIVHSSPKLGVNNVVKLLTFGNNYTGCSEICTLFLRPQYRQGLNGRLMSKCRFLMMAEHSHRFSKTIFAEMRGVSDADGNSPFWKWLQEHFFSIDFTLADYLTGIGKKGFIADLMPKLPIYVNLLSKEAQAVIGQVHENTRPALVLLEKEGFTCRNYVDIFDAGPTVECELNNIESVRHSVRAIVEVAEHSSSQNFIMCNTSFENFRATAAKAAYSQEDNAVIISPKVAAALEVSTGDYLRILAQEGHHHHHH | soluble
MSLSNAMTSKLERFIDQGVGRVPADIVLKGGCFFDLVTGELVQSDIAIGADRIVGTSGNYEGETEIDISGRIVVPGFIDTHLHIESSLVTPHEFDRCVLPYGVTTAICDPHEIANVLGAAGIEFFLESALETIMDIRVQLSSCVPATHLETSGADLPIESLLPYRHHPKVIGLAEFMNFPGVIHKDPICMAKLDAFQGGHIDGHAPLLSGNDLNGYLAAGIRTEHECTTASEALEKIRKGVHILVREGSVSKDLAALMPIITERLSPFLALCTDDRNPLDIAEQGHLDHMIRTAIASRVEPLAIYRAASISAARAFGLKDRGLVAPGWRADLVVLDSLENCRADMVFSAGRRVTDALFSSRRPVAPIGLDSVKARPVNAAHFGVPVAEGETPVIGVIPGKIITEHRRYRLPVRGNEAAVDLANDIIKVAVIERHGKNGNHANGFVQGFGLKKGAIASTVGHDSHNICVVGVSEDDMARAANRLSEIKGGFVVVEDGKVTGEIALPIAGLMSLEPYETVRDTLHQLRKAAFALGATLEEPFLQLAFLPLPVIPHLKISDRGMVDVDKFALIGEGHHHHHH | soluble
MSLSNSLLPPNASGLERDIEQVIVQSTDLPIRIKDLWNPYSCHLSLLPWLAWALSVDEWDDRWPEHIKRQVVQDSFDVHRFKGTPYAVQKALDSLNIKTHLREWWEPDGSQEPGTMTVVALINENLTDDDNGLITEAMLEQVTRVIHTAKRGVIHFDVELGISLDETLGFSGAIGPSIAEIDFSSDFLPIVPEKGSADMAFSAALYGIGSADFLADMSGVVPDESSSHVFVCGGLAGISASWLEFEGDLEGHHHHHH | soluble
MSLSNTPIELKGSSFTLSVVHLHEAEPEVIRQALEDKIAQAPAFLKHAPVVINVSGLESPVNWPELHKIVTSTGLRIIGVSGCKDASLKVEIDRMGLPLLTEGKEKAVRPAPVEPATPSEPPQNANPITKTRLIDVPVRSGQRIYAPQCDLIVTSHVSAGAELIADGNIHVYGMMRGRALAGASGDREAQIFCTHLTAELVSIAGVYWLSDKIPAEFYGKAARLRLADNALTVQPLNEGHHHHHH | soluble
MSLSPPILVGFSGPLTGVNSDLGVQGRNGAQLAIEHINAGGGINGRQLELLSMDDGPTAESARDADSALLRQGVVAIIGHMTSNQAIAGLPVVEQHGAVMIAPTVSTPLLTGKRDGFFRLMPDNDSWAYATADYALAQGLKTVSVIYETANQAFAGSFVDGFVTQFEAGGGRLLQRIPFTSAQRDTLEAAAIRAVSTNPDTIVLAASARDTAALAQFIDAHDSPRPVLLSSSWAYTREIFLAGGRAVEGIVFTISYLPDDTREGYLAFRKAYTERFGWEPNFAAALAYESAKVLAAALRRTGGRAQGLREALAAGTPVQGISETVTLDQYGDVQRPPYIVTIRNGEFVSIQEGHHHHHH | soluble
MSLSRTTQLPFAKRQFFQVLARNYSNTQDADLVVIGGGPGGYVAAIKAAQLGMKTVCVEKNATLGGTCLNVGCIPSKALLNNSHYLHMAQHDFAARGIDCTASLNLPKMMEAKSNSVKQLTGGIKQLFKANKVGHVEGFATIVGPNTVQAKKNDGSVETINARNILIASGSEVTPFPGITIDEKQIVSSTGALSLGQVPKKMVVIGAGVIGLELGSVWQRLGAEVTAVEFLGHVGGMGIDGEVSKNFQRSLTKQGFKFLLNTKVMGASQNGSTITVEVEGAKDGKKQTLECDTLLVSVGRRPYTEGLGLSNVQIDLDNRGRVPVNERFQTKVPSIFAIGDVIEGPMLAHKAEDEGILCVEGIAGGPVHIDYNCVPSVVYTHPEVAWVGKAEEQLKQEGVAYKIGKFPFVANSRAKTNNDQEGFVKVLADKQTDRMLGVHIIGPNAGEMIAEATLAMEYGASAEDVARVCHPHPTLSEAFREANLAAYCGKAINNV | not soluble
MSLSSAQQWSYVRQLQREIRRSDVLDLPLEKLPVVVFDLETSGFYPDQGDRILSIGAVKVVGLTIQEEETFYSVVHTDTVPPENILELTGLSVEELEAAPPLTSVLESFYAFIRHSTLVAHHASHEKAFMSHVTWQTMKLPFEHRVIDTSFLTKIVAPQELVTLDDCCAYYSIPVQNRHHAFEDSLMTAKLWIAAIAAAREAGFETLRDIYVHLAHQREGHHHHHH | soluble
MSLSSCEVLTSLGERMILIRGLTRVITFDDQERELEDADILIDGPKIVAVGKDLSDRSVSRTIDGRGMIALPGLINSHQHLYEGAMRAIPQLERVTMASWLEGVLTRSAGWWRDGKFGPDVIREVARAVLLESLLGGITTVADQHLFFPGATADSYIDATIEAATDLGIRFHAARSSMTLGKSEGGFCDDLFVEPVDRVVQHCLGLIDQYHEPEPFGMVRIALGPCGVPYDKPELFEAFAQMAADYDVRLHTHFYEPLDAGMSDHLYGMTPWRFLEKHGWASDRVWLAHAVVPPREEIPEFADAGVAIAHLIAPDLRMGWGLAPIREYLDAGITVGFGTTGSASNDGGNLLGDLRLAALAHRPADPNEPEKWLSARELLRMATRGSAECLGRPDLGVLEEGRAADIACWRLDGVDRVGVHDPAIGLIMTGLSDRASLVVVNGQVLVENERPVLADLERIVANTTALIPKNLEGHHHHHH | not soluble
MSLSSDMEGGMITMKANDTTKYLIHAEIEAEGVVERPDVVGAIFGQTEGLLGGDLDLRELQKTGRIGRIEVKIESKGGRSFGEIKVPSSLDKVETAILAAALETIERVGPCSAKIKVLKIEDVRASKRKRIVERAMNILREHFEEPEIESERIVEIVRQAIRADEIVEYGEEKLPAGPAIDESDAIIVVEGRADVLNLLKHGIKNVIAVEGTNIPKTIVELSKKKTVTAFLDGDRGGDLILKELLQVAEVDYVARAPEGKEVEDLTQKEILKSLRNKVPVEQLHVLKKEAKEGREREKLAEMPKDSISDVLRKHTESVKGRLTARVLDRNLNVIKEVPVRDLVKILKTNNMKGSAIVFDGIITQRLIDLAAKKEFDYIVGVRLGSVVKVPTSLRVITFDQLEGHHHHHH | not soluble
MSLSSDSQEIRRSILSKWHKTLSKYGNLFSSDTISGTSPPSVFVGSYNYPKVFVGPMVPPIHGDTSLLDSPEKWKGRSLEEIINFRLNLVRGIHKTGIEHTEGRYIENLQEITMSEKPTDLDLVFMKNTSSNISMDGESAPFGPTGEIKSAKFSGSSSTKPIEKIFYDKDMKAQDAVLKLYNSGIEISKIQKCFSIGMLGKKRKLVPTKWSITATDDIISKSIVKEILENSIIDTCKVFSYEHLGNVFSVILFPHRWIFEMIEGWYSNGILGFGSDSEDARGIDHPPRIAGAYFAAKLGVSEYLLKNKIQAGVLIFREIRPEYAIPVGVWQVREGIREAMKQKPQIVSDFNHALNLASAKTSVSKKEWIVNGDMINRVRQKTILDFMEGHHHHHH | not soluble
MSLSSEHIQNKLALLPDQPGCYLMKDRQGTIIYVGKAKILKNRVRSYFSGTHDSKTQRLVQEIVDFEYIVTSSNVEALLLEINLIKKHDPRFNIRLKDDKTYPFIKITNERHPRLIITRQVKKDKGKYFGPYPNVYAANEVKRILDRLYPLRKCSTLPNKVCLYYHLGQCLAPCVFDVEASKYKEMQDEIVTFLNGGYKTVKNDLMKKMQEAAENMEFEKAGEFRDQINAIETTMEKQKMTMNDFVDRDVFGYAIDKGWMCVQVFFIRQGKLIERDVSQFPFYNDADEDFLTFIGQFYQKANHIPPKEIYLPDDVDSEAVQAVVPDTKIIVPQRGNKKDLVKLAYKNAKIALNEKFMLLERNEERTVGAVERLGEAMGIPTPSRVEAFDNSNIHGTDPVSAMVTFLDGKPSKNDYRKYKIKTVEGPDDYATMREVIRRRYWRVLKEELPMPDLILIDGGKGQIDSAKDVLTNELGLDIPVAGLAKDDKHRTSQLLFGDPLEIVPLERNSQEFYLLQRMQDEVHRFAITFHRQLRSKTGFQSILDGIPGVGPGRKKKLLKHFGSMKKLKEASVEEIKEAGVPLNVAEEVHKHITAFNEGHHHHHH | soluble
